Laboratory results as given in US20170226155A1 (TRUSTEES OF TUFTS COLLEGE, published 2017).
Where no end group is shown, it is not given here. [ ]: non-standard residue; d: D form. The star is where a group is joined. boroPro = OB(O)[C@@H]1CCCN1*

What was measured:
[1] = biological target: Dipeptidyl amino peptidase type IV (DPP IV); experiment: cell-based or functional assay
[2] = biological target: Dipeptidyl amino peptidase type IV (DPP IV); experiment: cell-based or functional assay; remark: listed apart in the source

B1: TyrProPheboroPro (peptide)
peptide: YPF[boroPro]
For B1, the “IC50 at ten minutes, pH 2” value [1] was 50 nM and the “IC50 at ten minutes, pH 8” value [1] was 60 nM.

B2: AlaAlaProboroPro (peptide)
peptide: AAP[boroPro]
With B2 the “IC50, pH 2 (Tetrapeptide Prodrugs)” value [2] was 3 mM, the “IC50, pH 8 (Tetrapeptide Prodrugs)” value [2] was 2 mM and the “IC50 at ten minutes, pH 2” value [1] was 3 µM.
